Results published in PMC7483523, “Affinity of Skp to OmpC revealed by single-molecule detection” (Scientific Reports, 2020).

Key:
[1] = target: T1, OmpC G8C-I232C, dual-labelled (UniProt P06996 22-367, G8C | I232C, dual-labelled with fluorescent dyes on the cysteines (dyes not named for this mutant)); assay: smFRET (intramolecular, on dual-labelled OmpC); 50 pM dual-labelled OmpC diluted from 8 M urea into micromolar wild-type Skp, buffer C, 0.02% tween 20, 23 °C; peak areas of Eapp 0.1 and 0.3 fitted against [Skp]0; settings: both partners purified
T1 construct: OmpC, outer membrane protein; plasmid pET28a-ompC as template; also called OmpC double mutant; source: E. coli BL21(DE3), purified (Ni-NTA) in 8 M urea
T1 sequence (looked up): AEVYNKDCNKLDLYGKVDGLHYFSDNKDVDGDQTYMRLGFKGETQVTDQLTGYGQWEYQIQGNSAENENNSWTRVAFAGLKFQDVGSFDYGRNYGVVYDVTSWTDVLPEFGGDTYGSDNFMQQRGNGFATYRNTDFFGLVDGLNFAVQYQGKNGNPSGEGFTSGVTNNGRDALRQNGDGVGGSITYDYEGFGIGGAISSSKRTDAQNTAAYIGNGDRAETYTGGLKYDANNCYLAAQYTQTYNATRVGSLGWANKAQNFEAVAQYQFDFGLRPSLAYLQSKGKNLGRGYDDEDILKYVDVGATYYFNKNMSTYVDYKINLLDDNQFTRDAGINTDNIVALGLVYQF

[2] = target: T2, OmpC·Skp3 complex (dual-labelled OmpC G8C-D335C with wild-type Skp) (UniProt P06996 22-367; P0AEU7 21-161, G8C | D335C, fluorescent dyes AF555 and AF647 (maleimide) on the cysteines); assay: as above; settings: both partners purified
T2 construct: OmpC, as the chain of m4; Skp, as the chain of m1; source: formed in the sample from purified urea-denatured OmpC G8C-D335C (50 pM) and purified wild-type Skp; copies: 1 + 3
T2 sequence 1: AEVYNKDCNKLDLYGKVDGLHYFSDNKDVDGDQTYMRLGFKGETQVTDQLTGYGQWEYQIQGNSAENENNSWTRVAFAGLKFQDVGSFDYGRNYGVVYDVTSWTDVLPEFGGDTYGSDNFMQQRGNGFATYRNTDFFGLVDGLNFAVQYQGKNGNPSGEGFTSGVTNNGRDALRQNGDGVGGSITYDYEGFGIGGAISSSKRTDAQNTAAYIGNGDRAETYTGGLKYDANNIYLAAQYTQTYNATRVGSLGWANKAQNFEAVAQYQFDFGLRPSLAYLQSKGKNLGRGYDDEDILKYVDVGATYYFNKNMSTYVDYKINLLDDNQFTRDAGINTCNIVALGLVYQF
T2 sequence 2: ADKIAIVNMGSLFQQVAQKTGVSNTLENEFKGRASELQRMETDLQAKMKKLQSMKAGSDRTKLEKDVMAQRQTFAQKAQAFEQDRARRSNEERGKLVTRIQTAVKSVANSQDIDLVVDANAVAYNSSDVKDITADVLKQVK

[3] = target: T3, OmpC G8C-L139C, dual-labelled (UniProt P06996 22-367, G8C | L139C, dual-labelled with fluorescent dyes on the cysteines (dyes not named for this mutant)); assay: as above; settings: both partners purified
T3 construct: OmpC, outer membrane protein; plasmid pET28a-ompC as template; also called OmpC double mutant; source: E. coli BL21(DE3), purified (Ni-NTA) in 8 M urea
T3 sequence (looked up): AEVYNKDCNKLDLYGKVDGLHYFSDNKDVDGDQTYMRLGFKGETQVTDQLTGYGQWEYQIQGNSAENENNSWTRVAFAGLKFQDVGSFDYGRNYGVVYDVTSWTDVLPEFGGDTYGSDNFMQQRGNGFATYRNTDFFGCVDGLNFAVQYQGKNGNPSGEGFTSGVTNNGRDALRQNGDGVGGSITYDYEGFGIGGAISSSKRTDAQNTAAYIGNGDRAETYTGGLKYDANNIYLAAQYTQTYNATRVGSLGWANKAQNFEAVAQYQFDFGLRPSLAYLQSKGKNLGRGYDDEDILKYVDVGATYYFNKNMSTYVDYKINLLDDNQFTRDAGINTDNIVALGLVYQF

[4] = target: T4, OmpC G8C-D335C labelled with AF555 and AF647 (UniProt P06996 22-367, G8C | D335C, fluorescent dyes AF555 and AF647 (maleimide) on the cysteines); assay: pscFCS (portion-selectively-chosen FCS on smFRET subpopulations); 50 pM dual-labelled OmpC diluted from 8 M urea into wild-type Skp at subnanomolar to nanomolar concentrations, buffer C, 0.02% tween 20, 23 °C; diffusion times of bound and unbound OmpC compared in the same sample; settings: both partners purified
T4 construct: OmpC, outer membrane protein; plasmid pET28a-ompC as template; Unfolded OmpC, diluted from urea; Residue numbers fit the mature protein without its signal peptide (surmised); also called dual-labelled OmpC; intramolecular labelled OmpC G8C-D335C; source: E. coli BL21(DE3), purified (Ni-NTA) in 8 M urea; diluted from 8 M urea into the sample
T4 sequence (looked up): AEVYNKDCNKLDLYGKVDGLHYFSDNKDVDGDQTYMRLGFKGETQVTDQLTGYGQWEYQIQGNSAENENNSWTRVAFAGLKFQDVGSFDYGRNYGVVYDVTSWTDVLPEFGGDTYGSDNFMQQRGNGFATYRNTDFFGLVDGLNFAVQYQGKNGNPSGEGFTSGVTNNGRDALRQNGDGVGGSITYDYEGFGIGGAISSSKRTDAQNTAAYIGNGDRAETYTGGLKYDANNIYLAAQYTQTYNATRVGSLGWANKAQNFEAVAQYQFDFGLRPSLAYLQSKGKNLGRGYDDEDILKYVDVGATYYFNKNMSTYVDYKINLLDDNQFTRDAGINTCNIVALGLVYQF

[5] = target: the molecule itself; assay: fluorescence correlation spectroscopy (FCS); trimer to monomers; 0.4 nM Skp D128C-Cy3B as tracer in wild-type Skp of various concentrations, denatured by 4 M urea and diluted 100-fold in buffer C (50 mM PB, 100 mM NaCl, pH 7.0), 0.02% tween 20, 23 °C; effective stoichiometric number from the diffusion time fitted against [Skp]0
[6] = target: T5, OmpC G8C-AF555 with an AviTag on the C-terminus, biotinylated (UniProt P06996 22-367, G8C, AF555 (maleimide) on the cysteine of G8C; biotin on the AviTag's lysine side chain); assay: TIRF colocalization (single molecule); apparent; biotinylated OmpC G8C-AF555 (50 pM) immobilised on a streptavidin coverslip; Skp D128C-AF647 from 500 pM to 8 nM in buffer C, 0.02% tween 20, oxygen scavenging system, 23 °C; alternating laser excitation 532 and 640 nm; settings: both partners purified
T5 construct: OmpC, outer membrane protein; plasmid pET28a-ompC as template; Held on a streptavidin surface by the biotin of the AviTag; also called biotinylated OmpC; source: E. coli BL21(DE3), purified (Ni-NTA) in 8 M urea; biotinylated by BirA
T5 sequence (looked up): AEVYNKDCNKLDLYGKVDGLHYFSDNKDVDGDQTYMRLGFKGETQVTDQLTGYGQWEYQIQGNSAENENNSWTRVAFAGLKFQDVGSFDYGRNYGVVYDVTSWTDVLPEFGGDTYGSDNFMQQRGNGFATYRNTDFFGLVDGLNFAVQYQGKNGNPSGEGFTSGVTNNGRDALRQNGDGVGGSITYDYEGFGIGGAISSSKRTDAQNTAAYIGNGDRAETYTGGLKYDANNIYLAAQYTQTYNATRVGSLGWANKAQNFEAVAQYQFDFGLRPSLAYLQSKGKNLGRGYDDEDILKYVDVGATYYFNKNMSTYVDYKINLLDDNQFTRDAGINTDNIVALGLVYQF

Binder | binding result [1] | Kd [2] | binding result [3] | stoichiometry N [4] | stoichiometry N [5] | Kd [6] | stoichiometry N [6]
wild-type Skp (natural protein, Skp, periplasmic chaperone of gram-negative bacteria; plasmid pET28a-skp; In equilibrium between monomer and homotrimer (Skp3); concentrations are counted in Skp monomer; The printed mass of the labelled His-tagged mutant (18.8 kD) and the residue number D128 fit the mature protein without its signal peptide (surmised); also called Skp3 (trimer); Skp monomer; source: E. coli BL21(DE3) pLysS, …) ADKIAIVNMGSLFQQVAQKTGVSNTLENEFKGRASELQRMETDLQAKMKKLQSMKAGSDRTKLEKDVMAQRQTFAQKAQAFEQDRARRSNEERGKLVTRIQTAVKSVANSQDIDLVVDANAVAYNSSDVKDITADVLKQVK | binds | 1200 ± 400 nM | binds | 2.8 ± 0.4 Skp:OmpC | 3 | – | –
Skp D128C-AF647 (natural protein, AF647 (maleimide) on the cysteine of D128C, Skp; plasmid pET28a-skp as template; source: E. coli BL21(DE3) pLysS, purified (Ni-NTA, desalting), labelled in 4 M urea; not shown: His-tag, N-terminal, kept) ADKIAIVNMGSLFQQVAQKTGVSNTLENEFKGRASELQRMETDLQAKMKKLQSMKAGSDRTKLEKDVMAQRQTFAQKAQAFEQDRARRSNEERGKLVTRIQTAVKSVANSQDIDLVVDANAVAYNSSCVKDITADVLKQVK | – | – | – | – | – | 0.55 nM | 3
